± gives the standard deviation of the averaged measurements.

B1: library; numbered along this chain (parent)
chain: MNIQIGELAKRTACPVVTIRFYEQEGLLPPPGRSRGNFRLYGEEHVERLQFIRHCRSLDMPLSDVRTLLSYRKRPDQDCGEVNMLLDEHIRQVESRIGALLELKHHLVELREACSGARPAQSCGILQGLSDCVCDTRGTTAHPSD

Variants of B1 are the subject of data set [1]. Kind of data set: sfGFP reporter fluorescence (15 h) (µM FITC); higher = higher leak. Conditions: library round: Round 1; ligand: none. As to the method:
(§1)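 Cell-free biosensing: 1 µL Echo-assembled CFE reactions with linear PbrR variant templates (5 nM) and pPbrR-sfGFP reporter, with 1 µM Pb, 30 µM Zn or no ligand; endpoint sfGFP fluorescence after 15 h at 30 °C calibrated as µM FITC. Round 1 ML-predicted PbrR mutants; 3 biological replicates.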

In data set [2] the parent is B1. Kind of data set: sfGFP reporter fluorescence (15 h) (µM FITC); higher = stronger transcriptional activation. Conditions: library round: Round 1. The protocol: as §1

For the variant MNIQIGELAKRTACPVVTIRFYEQEGLLPPPGRSRGNFRLYGEEHVERLQFIRHCRSLDMPLSDVRTLLSYRKRPDQDCGEVSMLLDEHIRQVESRIGALLELKHHLVELREACSGARPAQSCGILQGLSACVCATRGTTAHPSD, the sfGFP reporter fluorescence worked out at 0.0661 ± 0.0022 in data set [1], 0.082 ± 0.01 in data set [2] (ligand: 1 µM Pb) and 0.275 ± 0.028 in data set [2] (ligand: 30 µM Zn).

With MNIQIGELAKRTACPVVTIRFYEQEGLLPPPGRSRGNFRLYGEEHVERLQFIRHCRSLDMPLSDVRTLLSYRKRPDQDCGEVNMLLDEHIRQVESRIGALLELKHHLVELREACSGARPAQSCGILQHLSCCVCDTRGTTAHPSD, the sfGFP reporter fluorescence in data set [1] was 0.0654 ± 0.0018; in data set [2] (ligand: 1 µM Pb) it was 0.0887 ± 0.01; in data set [2] (ligand: 30 µM Zn) it was 0.187 ± 0.02.

For MNIQIGELAKRTACPVVTIRFYEQEGLLPPPGRSRGNFRLYGEEHVERLQFIRHCRSLDMPLSDVRTLLSYRKRPDQDCGEVTMLLDEHIRQVESRIGALLELRHHLVELREACSGARPAQSCGILQGLSDCVCKTRGTTAHPSD, the figures for the sfGFP reporter fluorescence in data set [1], in data set [2] (ligand: 1 µM Pb) and in data set [2] (ligand: 30 µM Zn) were 0.0682 ± 0.00097, 0.0845 ± 0.0083 and 0.149 ± 0.0056, respectively.

MNIQIGELAKRTACPVVTIRFYEQEGLLPPPGRSRGNFRLYGEEHVERLQFIRHCRSLDMPLSDVRTLLSYRKRPDQDCGEVNMLLDEHIRQVESRIGALLELKHHLVELREACSGARPAQSCGILQGISCCVCDTRGTTAHPSD: the sfGFP reporter fluorescence in data set [1] was 0.0646 ± 0.0017; in data set [2] (ligand: 1 µM Pb), 0.0641 ± 0.0044; in data set [2] (ligand: 30 µM Zn) it was 0.07 ± 0.0017.

As for MNIQIGELAKRTACPVVTIRFYEQEGLLPPPGRSRGNFRLYGEEHVERLQFIRHCRSLDMPLSKVRTLLSYRKRPDQDCGEVNMLLDEHIRQVESRIGALLELKHHLEELREACSGARPAQSCGILQGLSDCVCDTRGTTAHPSD, the sfGFP reporter fluorescence stood at 0.0746 ± 0.0013 in data set [1], 0.165 ± 0.015 in data set [2] (ligand: 1 µM Pb) and 1.42 ± 0.1 in data set [2] (ligand: 30 µM Zn).

On to MNIQIGELAKRTACPVVTIRFYEQEGLLPPPGRSRGNFRLYGEEHVERLQFIRHCRSLDMPLSDVRTLLSYRKRPDQDCGEVTMLLDEHIRQVESRIGALLELKHHLVELRLACSGARPAQSCGILQGLSDCVCDTRGTTAHPSD, for which the sfGFP reporter fluorescence in data set [1] came to 0.0619 ± 0.0034; in data set [2] (ligand: 1 µM Pb) it was 0.0766 ± 0.0039; in data set [2] (ligand: 30 µM Zn), 0.125 ± 0.0069.

In the case of MNIQIGELAKRTACPVVTIRFYEQEGLLPPPGRSRGNFRLYGEEHVERLQFIRHCRSLDMPLSDVRTLLSYRKRPDQDCGEVNMLLDEHIRQVESRIGALLELKHHCVELREACSGARPAQSCGILQILSDCVCATRGTTAHKSD, the results for the sfGFP reporter fluorescence in data set [1], in data set [2] (ligand: 1 µM Pb) and in data set [2] (ligand: 30 µM Zn) were 0.787 ± 0.091, 1.52 ± 0.079 and 2.47 ± 0.14, respectively.

The record behind these values is the supplement of paper PMC12783771.
